Test results as given in patent US12708677B2, “Contrast agents, methods for preparing contrast agents, and methods of imaging” (Georgia State University Research Foundation, Inc., priority 2008, dated 2026).
Marks after values point to notes of the source that are not given here.

How the values were obtained:
[1] = Zn^2+ binding affinity, dye competition assay (FluoZin)
Excerpt: FIG. 1.6: Measurement of metal binding constants. Gd^3+ binding affinity (FIG. 1.6a) and Zn^2+ binding affinity (FIG. 1.6b) of CA1.CD2 measured by dye competition assays. CA1.CD2 stock solution was gradually added into the 1:1 dye-metal complex to compete for the dye-bound metal ions. The insets show the titration curve for the dye indicators fluo 5N (FIG. 1.6a) and FluoZin (FIG. 1.6b), respectively. (FIG. 1.6c) La^3+ binding affinity obtained by Aromatic residue sensitized Tb^3+ luminescence energy transfer. The Tb^3+ fluorescence of a protein-Tb^3+ mixture decreases with the addition of La^3+. The La^3+ concentrations are 0, 0.30, 0.76, 5.95, 11.03, and 28.95 μM from top to bottom. The Tb^3+ fluorescence decrease competition was fitted (line) by a normal competition plus a nonspecific quenching effect (inset).
(§1) Since metal selectivity for Gd^3+ over other physiological metal ions is for minimizing the toxicity of the agents,^39, 40 we measured metal binding constants using dye-competition assays with various chelate-metal buffer systems (Table 1). Low limit metal binding affinities of the proteins were also estimated based on Tb^3+-sensitized FRET and competition assays. […] This is considered for in vivo applications of the contrast agent as the phosphate concentration in serum is maintained at ~1.3 mM.^6, 9 The stability of a contrast agent in blood circulation is another factor for in vivo applications. We characterized the stability by incubating Gd-CA1.CD2 with 75% human serum at 37° C. for 3 and 6 hours.
Metal binding affinity for Ca^2+ and Zn^2+ were determined using similar competition methods and specific dyes with proper Kd values.

[2] = Mg^2+ binding constant, competition assays
Excerpt: as §1

[3] = Gd^3+-binding affinity, dye competition titration with Fluo-5N; details: phosphate 50 mM
Protocol: Gd^3+-binding Affinity Determination, […]-binding affinity of CA1.CD2 was determined by a competition titration with Fluo-5N applied as a Gd^3+ indicator. The fluorescence spectra of Fluo-5N were obtained with a fluorescence spectrophotometer (Photon Technology International, Inc.) with a 10 mm path length quartz cell at 22° C. Fluo-5N emission spectra were acquired at […] to 650 nm with an excitation at 488 nm. […] The experiment was performed with a gradual addition of CA1.CD2. An apparent constant, Kapp, was estimated by fitting the fluorescence emission intensity of Fluo-5N at 520 nm with different CA1.CD2 concentrations as a 1 to 1 binding model. Gd^3+-binding affinity of CA1.CD2, Kd2, was calculated with the following equation: […]
Since metal selectivity for Gd^3+ over other physiological metal ions is for minimizing the toxicity of the agents,^39, 40 we measured metal binding constants using dye-competition assays with various chelate-metal buffer systems (Table 1). […]
Gd^3+-binding affinities of CA1.CD2 and its pegylated variants were determined by a competition titration with Fluo-5N applied as a Gd^3+ indicator (Yang et al., JACS, 2008). The fluorescence spectra of Fluo-5N were obtained with a fluorescence spectrophotometer (Photon Technology International, Inc.) with a 10 mm path length quartz cell at 22° C. […]

CD-1 mice = test: Toxicity analyses and clinical pathology in mice
Protocol: Toxicity Analyses. […] Tissue samples from kidney, liver, spleen, and lung were collected.
One group of mice received (i.v. tail veil) 50 μl of saline-buffer (as control). […] Blood samples were collected from the experimental mice. Serum samples were prepared from the collected blood. Liver enzymes in serum samples, including Alanine transaminase (ALT), Alkaline phosphatase (ALP), Aspartate transaminase (AST), Gamma glutamyl transpeptidase (GGT), and bilirubin and urea nitrogen were analyzed by a commercially available source (MU Research Animal Diagnostic Laboratory). All clinical chemistry parameters were measured on an Olympus AU 400 analyzer.
Tissue samples from kidney, liver, spleen, and lung were collected.

[4] = Serum stability in human serum at 37° C., SDS-PAGE; format: in vitro ADME; details: 75% human serum, 37° C., 6 hours
Protocol: Serum stability. […] The degradation of the protein (disappearance of 12 kDa protein band) was analyzed by SDS-PAGE and visualized by coomassie blue staining. In parallel, the degradation of the protein was also analyzed by immunoblot using antibodies OX54 or PabCD2. The identities of the 12 kDa bands as CA1.CD2 were always verified by immunobloting using antibody PabCD2.
[…] The degradation of the protein (disappearance of 12 kDa protein band) was analyzed by SDS-PAGE and visualized by coomassie blue staining for protein and idiol staining for PEG moiety. In parallel, the degradation of the protein was also analyzed by immunoblot using antibodies OX54 or PabCD2. The identities of CA1.CD2 and pegylated variants were verified by immunoblotting using antibody PabCD2.and idiol staining.

Row | Molecule | Metal binding constant (Log Ka) Zn^2+ [1] | disassociation constant (Kd) for Zn^2+ [1] | Log (KGd/KZn) ([1]; metal selectivity) | Metal binding constant (Log Ka) Mg^2+ [2] | disassociation constant (Kd) for Mg^2+ [2] | Log (KGd/KMg) ([2]; metal selectivity) | removal of Gd^3+ from the protein by phosphate [3] | ALP (CD-1 mice; 4.0 μmole/kg, n = 4) | ALT (CD-1 mice; 4.0 μmole/kg, n = 4) | AST (CD-1 mice; 4.0 μmole/kg, n = 4) | Direct Bili (CD-1 mice; 4.0 μmole/kg, n = 4) | GGT (CD-1 mice; 4.0 μmole/kg, n = 4) | Total Bili (CD-1 mice; 4.0 μmole/kg, n = 4) | Total Urine Protein (CD-1 mice; 4.0 μmole/kg, n = 4) | Urea Nitrogen (CD-1 mice; 4.0 μmole/kg, n = 4) | effects on liver enzymes (ALT, ALP, AST), serum urea nitrogen, bilirubin, total protein vs control mice (CD-1 mice; 48 hours post-contrast injection) | acute toxicity (CD-1 mice; ~2.4 μmole/kg, observed five days) | stability of protein-Gd complex in serum [4]
1 | CA1.CD2: designed Gd^3+-binding protein, domain 1 of rat CD2 with ligand residues Glu15, Glu56, Asp58, Asp62, Asp64 (protein) RDSGTVWGALGHGIELNIPNFQMTDDIDEVRWERGSTLVAEFKRKMKPFLKSGAFEIDANGDLDIKNLTRDDSGTYNVTVYSTNGTRILNKALDLRILE | 6.72 | 0.00019 mM | 5.34 | <2.0 | > 10 mM | >10.06 | not able to remove the Gd^3+ from the protein | – | – | – | – | – | – | – | – | – | – | –
2 | Gd-CA1.CD2: CA1.CD2 in complex with Gd^3+ (protein) RDSGTVWGALGHGIELNIPNFQMTDDIDEVRWERGSTLVAEFKRKMKPFLKSGAFEIDANGDLDIKNLTRDDSGTYNVTVYSTNGTRILNKALDLRILE | – | – | – | – | – | – | – | 115.0 ± 0.2 U/L | 49.0 ± 0.2 U/L | 280.0 ± 0.2 U/L | 0.0 mg/L | 0.0 U/L | 0.4 ± 0.2 mg/L | 5.2 ± 0.2 g/L | 26.0 ± 0.2^d mg/L | negligible | did not exhibit acute toxicity | remained intact
